Article PMC6218445, “Pyruvate kinase M2 regulates homologous recombination-mediated DNA double-strand break repair” (Cell Research, 2018)

Target: T1, pyruvate kinase M2 (human (endogenous in U87), UniProt P14618 1-531)
T1 construct: pyruvate kinase M2 (PKM2), endogenous in the human glioblastoma cell line U87; In irradiated cells part of the nuclear PKM2 is phosphorylated at T328 by ATM; The lysates hold a mixture; also called PKM2; source: endogenous, U87 lysate
Test: not stated; association of PKM2 and CtIP after irradiation, with the ATM inhibitor KU55933 against without; legend of Fig. S7a not shown
Settings: partners not purified

T1 sequence (P14618 whole entry): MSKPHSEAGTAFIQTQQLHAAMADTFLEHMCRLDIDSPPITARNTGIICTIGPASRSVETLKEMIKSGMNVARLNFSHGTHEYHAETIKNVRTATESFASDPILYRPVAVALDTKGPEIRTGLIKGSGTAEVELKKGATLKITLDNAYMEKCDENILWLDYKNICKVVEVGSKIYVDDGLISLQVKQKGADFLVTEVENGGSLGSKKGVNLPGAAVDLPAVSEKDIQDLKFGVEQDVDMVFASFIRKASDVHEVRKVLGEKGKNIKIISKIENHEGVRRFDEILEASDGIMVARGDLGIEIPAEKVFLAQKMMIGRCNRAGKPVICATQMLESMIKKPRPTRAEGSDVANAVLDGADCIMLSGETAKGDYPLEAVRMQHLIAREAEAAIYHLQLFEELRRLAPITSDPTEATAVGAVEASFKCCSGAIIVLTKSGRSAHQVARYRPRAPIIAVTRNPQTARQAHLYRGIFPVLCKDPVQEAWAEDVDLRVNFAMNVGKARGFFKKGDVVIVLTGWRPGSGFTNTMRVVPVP

- fold reduction of the association by KU55933 after irradiation: > 2.5 fold
B1: CtBP-interacting protein (natural protein, human (endogenous in U87), UniProt Q99708 1-897, looked up)
chain: MNISGSSCGSPNSADTSSDFKDLWTKLKECHDREVQGLQVKVTKLKQERILDAQRLEEFFTKNQQLREQQKVLHETIKVLEDRLRAGLCDRCAVTEEHMRKKQQEFENIRQQNLKLITELMNERNTLQEENKKLSEQLQQKIENDQQHQAAELECEEDVIPDSPITAFSFSGVNRLRRKENPHVRYIEQTHTKLEHSVCANEMRKVSKSSTHPQHNPNENEILVADTYDQSQSPMAKAHGTSSYTPDKSSFNLATVVAETLGLGVQEESETQGPMSPLGDELYHCLEGNHKKQPFEESTRNTEDSLRFSDSTSKTPPQEELPTRVSSPVFGATSSIKSGLDLNTSLSPSLLQPGKKKHLKTLPFSNTCISRLEKTRSKSEDSALFTHHSLGSEVNKIIIQSSNKQILINKNISESLGEQNRTEYGKDSNTDKHLEPLKSLGGRTSKRKKTEEESEHEVSCPQASFDKENAFPFPMDNQFSMNGDCVMDKPLDLSDRFSAIQRQEKSQGSETSKNKFRQVTLYEALKTIPKGFSSSRKASDGNCTLPKDSPGEPCSQECIILQPLNKCSPDNKPSLQIKEENAVFKIPLRPRESLETENVLDDIKSAGSHEPIKIQTRSDHGGCELASVLQLNPCRTGKIKSLQNNQDVSFENIQWSIDPGADLSQYKMDVTVIDTKDGSQSKLGGETVDMDCTLVSETVLLKMKKQEQKGEKSSNEERKMNDSLEDMFDRTTHEEYESCLADSFSQAADEEEELSTATKKLHTHGDKQDKVKQKAFVEPYFKGDERETSLQNFPHIEVVRKKEERRKLLGHTCKECEIYYADMPAEEREKKLASCSRHRFRYIPPNTPENFWEVGFPSTQTCMERGYIKEDLDPCPRPKRRQPYNAIFSPKGKEQKT
notes: also called CtIP; source: endogenous, U87 lysate
